What all share (assay): SPR
The target of one test is afucosyl mAb.
The target in test [1] is homo-L235V/F243L/R292P/Y300L/P396L (VLPYLL) variant.
The target in test [2] is homo-DLE variant (of Table 2, prepared by control mAb2).
In another test the target is hemi-YWA variant.
Test [3] addresses homo-DLE variant (of Table 1, compared with control mAb1).

Fold KD = KD (IgG1)/KD (Fc variant), Fold KD = KD (control mAb2)/KD (Fc variant) and Kd data for six substances are collected here from PMC3893233.

The substance “human FcγRIIIa^V158, extracellular region (receptor)” registered a Fold KD = KD (IgG1)/KD (Fc variant) with afucosyl mAb of 45 fold. Moreover, the Fold KD = KD (control mAb2)/KD (Fc variant) in test [1] is 33 fold; in test [2] it was 126 fold.
“human FcγRIIb, extracellular region (from UniProt P31994 43-217) (receptor)”: the Fold KD = KD (control mAb2)/KD (Fc variant) in test [1] came to 0.54 fold; in test [2], 6.7 fold.
The term Kd denotes the concentration at which binding is half-saturated. Lower therefore signals a tighter complex. Consider “human FcγRIIIa^F158, extracellular region (from UniProt P08637 17-208) (receptor)”, for which the Kd with hemi-YWA variant came out at 280 nM; in test [3], 5.5 nM.
“human FcγRIIa^H131, extracellular region (from UniProt P12318 34-217) (receptor)” gave a Fold KD = KD (IgG1)/KD (Fc variant) in the test with afucosyl mAb of 0.85 fold. Besides, the Fold KD = KD (control mAb2)/KD (Fc variant) in test [2] amounted to 1.4 fold.
The corresponding values for “human FcγRIIa^R131, extracellular region (receptor)” are 1.8 fold and 2.9 fold.
For the substance “human FcγRIa, extracellular region (from UniProt P12314 16-292) (receptor)”, the Fold KD = KD (control mAb2)/KD (Fc variant) in test [2] amounted to 3.4 fold.
